Consider three molecules from patent US7662583B2, “Bioreactor containing cells expressing glycosyltransferase nucleic acids isolatable from Arabidopsis” (The University of York, priority 2003, dated 2010).

The assay can be described thus: UGT enzyme reaction with cytokinins. It is filed as biochemical. Particulars: for Cytokinin products formed by the UGTs: 7-N-glucoside / Cytokinin products formed by the UGTs: 9-N-glucoside: cytokinins, 0.5 mM, 30° C., 3 h. As for the experimental part: The assay mix (200 μl) contained 2 μg of recombinant protein, 100 mM Tris-HCl, pH 8.0, 5 mM UDP-glucose 0.5 mM ATP, 50 mM MgCl2, and 0.5 mM of cytokinin. The reaction was carried out at 30° C. for 3 h, and was quick-frozen and stored at −20° C. prior to the reverse-phase HPLC analysis
Reverse-phase HPLC (SpectraSYSTEM HPLC systems and UV6000LP Photodiode Array Detector, ThermoQuest) analysis was carried using a Columbus 5μ C18 column (250×4.60 mm, PHENOMENEX). Quercetin glucosides were separated from the aglycone by a linear gradient of 10-75% acetonitrile in H2O (all solution contained 0.1% trifluoroacetic acid) at 1 ml/mm over 20 mm and monitored at 370 nm. Cytokinin glucosides were separated from their aglycone by a liner gradient of 10-100% methanol in H2O (for N6-isopentenyladenine (iP), N6-benzyladenine and kinetin) or 10-60% methanol in H2O (for trans-zeatin and dihydrozeatin) at 1 ml/min over 20 mm. All solution contained 0.25% acetic acid and 0.04% triethylamine, trifluoroacetic acid. The separation was monitored at 206 nm and 252 nm. The identity of the products was confirmed by comparison with authentic gluco sides.
• 1. 7-N-glucoside (76C1, 76C2) • 2. 9-N-glucoside (76C1, 76C2) • 3. O-glucoside (only apply to trans-Zeatin and dihydrozeatin) (85A1 for trans-Zeatin; 85A1 and 73C5 for dihydrozeatin) Large Scale Fermentation

B1: UGT76C2: glycosyltransferase, FIG. 10, glucosylates cytokinins (protein, listed as Arabidopsis thaliana)
chain: MEEKRNGLRVILFPLPLQGCINPMLQLANILHVRGFSITVIHTRFNAPKASSHPLFTFLQIPDGLSETEIQDGVMSLLAQINLNAESPFRDCLRKVLLESKESERVTCLIDDCGWLFTQSVSESLKLPRLVLCTFKATFFNAYPSLPLIRTKGYLPVSESEAEDSVPEFPPLQKRDLSKVFGEFGEKLDPFLHAVVETTIRSSGLIYMSCEELEKDSLTLSNEIFKVPVFAIGPFHSYFSASSSSLFTQDETCILWLDDQEDKSVIYVSLGSVVNITETEFLEIACGLSNSKQPFLWVVRPGSVLGAKWIEPLSEGLVSSLEEKGKIVKWAPQQEVLAHRATGGFLTHNGWNSTLESICEGVPMICLPGGWDQMLNSRFVSDIWKIGIHLEGRIEKKEIEKAVRVLMEESEGNKIRERMKVLKDEVEKSVKQGGSSFQSIETLANHILLL
Consider B1, for which the “Cytokinin products formed by the UGTs: 7-N-glucoside” value is listed as 7-N-glucoside and the “Cytokinin products formed by the UGTs: 9-N-glucoside” value is recorded as 9-N-glucoside.

B2: UGT85A1: glycosyltransferase, FIG. 12, glucosylates cytokinins (protein, listed as Arabidopsis thaliana)
chain: MGSQIIHNSQKPHVVCVPYPAQGHINPMMRVAKLLHARGFYVTFVNTVYNHNRFLRSRGSNALDGLPSFRFESIADGLPETDMDATQDITALCESTMKNCLAPFRELLQRINAGDNVPPVSCIVSDGCMSFTLDVAEELGVPEVLFWTTSGCAFLAYLHFYLFIEKGLCPLKDESYLTKEYLEDTVIDFIPTMKNVKLKDIPSFIRTTNPDDVMISFALRETERAKRASAIILNTFDDLEHDVVHAMQSILPPVYSVGPLHLLANREIEEGSEIGMMSSNLWKEEMECLDWLDTKTQNSVIYINFGSITVLSVKQLVEFAWGLAGSGKEFLWVIRPDLVAGEEAMVPPDFLMETKDRSMLASWCPQEKVLSHPAIGGFLTHCGWNSILESLSCGVPMVCWPFFADQQMNCKFCCDEWDVGIEIGGDVKREEVEAVVRELMDGEKGKKMREKAVEWQRLAEKATEHKLGSSVMNFETVVSKFLLGQKSQD
Regarding B2, the “Cytokinin products formed by the UGTs: O-glucoside” value (substrate dihydrozeatin) was “O-glucoside” and the “Cytokinin products formed by the UGTs: O-glucoside” value (substrate trans-Zeatin) is reported as “O-glucoside”.

B3: UGT76C1: glycosyltransferase, FIG. 9, glucosylates cytokinins (protein, listed as Arabidopsis thaliana)
chain: MEKRNERQVILFPLPLQGCINPMLQLAKILYSRGFSITIIHTRFNAPKSSDHPLFTFLQIRDGLSESQTQSRDLLLQLTLLNNNCQIPFRECLAKLIKPSSDSGTEDRKISCVIDDSGWVFTQSVAESFNLPRFVLCAYKFSFFLGHFLVPQIRREGFLPVPDSEADDLVPEFPPLRKKDLSRIMGTSAQSKPLDAYLLKILDATKPASGIIVMSCKELDHDSLAESNKVFSIPIFPIGPFHIHDVPASSSSLLEPDQSCIPWLDMRETRSVVYVSLGSIASLNESDFLEIACGLRNTNQSFLWVVRPGSVHGRDWIESLPSGFMESLDGKGKIVRWAPQLDVLAHRATGGFLTHNGWNSTLESICEGVPMICLPCKWDQFVNARFISEVWRVGIHLEGRIERREIERAVIRLMVESKGEEIRGRIKVLRDEVRRSVKQGGSSYRSLDELVDRISIIIEPLVPT
With B3, the “Cytokinin products formed by the UGTs: 7-N-glucoside” value is 7-N-glucoside and the “Cytokinin products formed by the UGTs: 9-N-glucoside” value is on record as 9-N-glucoside.
